Consider one substance from article PMC11215335.

This experiment deals with single-chain Fv antibody fragment 18B7. Description: not stated; soluble scFv produced in the periplasm of E. coli (Fig. S2A).

Chain of single-chain Fv antibody fragment 18B7 (scFv) (VH): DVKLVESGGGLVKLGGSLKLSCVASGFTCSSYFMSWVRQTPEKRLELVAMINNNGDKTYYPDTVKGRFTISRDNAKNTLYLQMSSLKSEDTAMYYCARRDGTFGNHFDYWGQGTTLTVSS
Chain of single-chain Fv antibody fragment 18B7 (scFv) (VL): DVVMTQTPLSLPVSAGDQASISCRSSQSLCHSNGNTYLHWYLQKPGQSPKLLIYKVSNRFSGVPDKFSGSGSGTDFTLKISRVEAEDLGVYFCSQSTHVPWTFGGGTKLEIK

The substance “single-chain Fv antibody fragment 18B7 (scFv)” showed a stoichiometry N of 2.

What is called stoichiometry N is a count of units in the complex or per binding partner.
